Experiments:
[1] = target: T1, rat synaptophysin (in rat hepatic stellate cells) (rat, UniProt P07825 1-307); test: Western blot of cell extracts (5 µg/lane) probed with C1-3 scAb
T1 construct: In rat HSC extracts on a Western blot; also called synaptophysin in rat HSCs; rHSCs

[2] = target: T2, target peptide-BSA conjugate (…-BSA) (human; bovine, UniProt P02769 25-607, chemically conjugated to bovine serum albumin (BSA) using 3 maleimidoacetic acid N-hydroxysuccinimide (MBS)); test: ELISA on coated peptide-BSA or BSA, detection with HRP anti-human Cκ
T2 construct: Typically on average ~4 peptide molecules per molecule of albumin; also called BSA-target peptide; BSA-peptide 2
T2 sequence (P02769 25-607 limits assumed): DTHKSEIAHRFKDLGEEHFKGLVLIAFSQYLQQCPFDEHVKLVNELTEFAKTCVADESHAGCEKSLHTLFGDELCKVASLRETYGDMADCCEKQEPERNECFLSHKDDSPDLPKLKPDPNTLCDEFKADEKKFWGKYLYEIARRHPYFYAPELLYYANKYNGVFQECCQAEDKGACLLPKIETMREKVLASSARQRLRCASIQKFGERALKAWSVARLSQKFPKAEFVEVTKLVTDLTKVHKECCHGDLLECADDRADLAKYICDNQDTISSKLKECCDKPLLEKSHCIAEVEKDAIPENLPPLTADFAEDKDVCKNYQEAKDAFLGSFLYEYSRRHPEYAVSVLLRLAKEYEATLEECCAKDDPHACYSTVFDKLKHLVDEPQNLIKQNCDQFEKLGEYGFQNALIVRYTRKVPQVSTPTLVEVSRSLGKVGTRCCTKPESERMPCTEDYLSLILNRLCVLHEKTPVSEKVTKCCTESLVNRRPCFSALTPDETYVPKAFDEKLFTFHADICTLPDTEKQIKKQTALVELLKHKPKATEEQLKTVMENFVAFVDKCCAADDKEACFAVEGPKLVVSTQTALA

T1 sequence (P07825 whole entry): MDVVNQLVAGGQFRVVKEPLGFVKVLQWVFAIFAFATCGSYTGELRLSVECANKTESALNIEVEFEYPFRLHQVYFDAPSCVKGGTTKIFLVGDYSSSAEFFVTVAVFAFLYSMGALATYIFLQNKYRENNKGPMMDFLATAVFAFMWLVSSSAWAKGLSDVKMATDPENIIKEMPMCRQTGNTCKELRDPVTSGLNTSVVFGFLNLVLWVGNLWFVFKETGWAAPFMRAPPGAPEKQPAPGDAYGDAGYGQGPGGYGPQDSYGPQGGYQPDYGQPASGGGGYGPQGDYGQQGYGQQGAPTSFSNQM

B1: C1-3 scAb (scFv)
scFv: MAEVQLLESGGGLVQPGGSLRLSCAASGFTFSSYAMSWVRQAPGKGLEWVSTIAASGPSTGYADSVKGRFTISRDNSKNTLYLQMNSLRAEDTAVYYCAKTTAKFDYWGQGTLVTVSSGGGGSGGGGSGGGGSTDIQMTQSPSSLSASVGDRVTITCRASQSISSYLNWYQQKPGKAPKLLIYSASRLQSGVPSRFNGSGSGTDFTLTISSLQPEDFATYYCQQLQRKPTTFGQGTKVEIKRGAAAPSVFIFPPSDEQLKSGTASVVCLLNNFYPREAKVQWKVDNALQSGNSQESVTEQDSKDSTYSLSSTLTLSKADYEKHKVYACEVTHQGLSSPVTKSFNRGESHHHHHH
notes: Single-chain antibody fragment: scFv fused to human C kappa and a hexa-histidine tag, expressed from pIMS147 in E. coli XL-1 blue; also called C1-3 scFv; clone pIMS147 C1-3
B1 was tested, and the binding result [1] was “no binding” and the “fold more scAb bound to peptide-BSA than to BSA alone” value [2] was about 8 times.

From patent US20110165078A1 (UNIVERSITY COURT OF THE UNIVERSITY OF ABERDEEN, published 2011)
